The source of these data is publication doi:10.1101/091884 (bioRxiv, 2016).

Common to all, as to test: SEC + other: SDS-PAGE
Data set [1] addresses B. amyloliquefaciens BslA_(42-181) (Bacillus amyloliquefaciens FZB42).
Data set [2] has as its target B. licheniformis BslA_(40-17g) (Bacillus licheniformis DSM13).
Data set [3] concerns the target B. pumilus BslA_(37-177) (Bacillus pumilus SAFR-032).
Data set [4] concerns the molecule itself.

The stoichiometry N is a count of units in the complex or per binding partner. For the molecule “B. amyloliquefaciens BslA_(42-181) (domain or fragment)”, in data set [1], the stoichiometry N stood at 2. Regarding “B. licheniformis BslA_(40-17g) (domain or fragment)”, the stoichiometry N in data set [2] was 2.

Regarding “B. pumilus BslA_(37-177) (domain or fragment)”, the stoichiometry N in data set [3] was 2.

B1: B. subtilis BslA_(42-181) (domain or fragment, Bacillus subtilis, UniProt P71014 42-181, looked up)
chain: MRTQSTASLFATITGASKTEWSFSDIELTYRPNTLLSLGVMEFTLPSGFTANTKDTLNGNALRTTQILNNGKTVRVPLALDLLGAGEFKLKLNNKTLPAAGTYTFRAENKSLSIGNKFYAEASIDVAKRSTPPTQPCGCN
For B1, the “stoichiometry N” value in data set [4] was found to be 2.
